Target: monoclonal anti-H2a antibody of hybridoma clone B9 (ECACC provisional accession number 04030801)
Experiment: competitive ELISA, B9 ascitic fluid preincubated overnight with free specific peptide, then added to the peptide-coated plate

- % inhibition of the reaction: 81%
Binder: CEKRRNATGEVA [H2 carboxyterminal peptide (SEQ ID NO. 1, …)]

From patent publication EP1601683B1
